Assay results taken from patent US20220193133A1.

Target: D04-his tagged VHH (humanized D04)
Experiment: Octet (BLI), anti-idiotype VHH-Fc vs his-tagged VHH; table title prints B11-his, paragraph 353 ties these values to D04

Response: 0.0062 | koff: < 1e-07 s⁻¹ | kon: 2160 M⁻¹ s⁻¹
B1: AMD71 (huB11_CNTY3+4_A02 anti-idiotype VHH IgG1-Fc fusion) (Fc fusion, not shown: a dimerising Fc or GST)
chain: EVQLLESGGGLVQPGGSLRLSCAASGRTYTGSAMGWYRQAPGKERELVSAISTGGETYYADSVKGRFTISRDNSKNTLYLQMNSLRAEDTAVYYCAAGYVGLPYTYRPATSRRGYTYWGQGTQVTVSS
